# Laboratory results reported in US10350158B2, “2′ fluoro-modified RNAs as immunostimulators” (DUKE UNIVERSITY, priority 2013, dated 2019).
# Strand notation (5' to 3'): a small letter for the sugar, then the base; units joined by * are phosphorothioate-linked, units joined directly phosphodiester-linked; [ ] holds rarer units or linkages, { } end groups; capitals alone tell only the bases. {ppp} = triphosphate; r = 2'-OH (RNA); f = 2'-fluoro
# T1: Human TLR7 (Homo sapiens, UniProt Q9NYK1)
# T1 construct: expressed in transfected cells; host or cells: HEK293 (HEK-TLR7), gift of Dr. Todd Brennan, Duke University
# T1 sequence (Q9NYK1 27-1049): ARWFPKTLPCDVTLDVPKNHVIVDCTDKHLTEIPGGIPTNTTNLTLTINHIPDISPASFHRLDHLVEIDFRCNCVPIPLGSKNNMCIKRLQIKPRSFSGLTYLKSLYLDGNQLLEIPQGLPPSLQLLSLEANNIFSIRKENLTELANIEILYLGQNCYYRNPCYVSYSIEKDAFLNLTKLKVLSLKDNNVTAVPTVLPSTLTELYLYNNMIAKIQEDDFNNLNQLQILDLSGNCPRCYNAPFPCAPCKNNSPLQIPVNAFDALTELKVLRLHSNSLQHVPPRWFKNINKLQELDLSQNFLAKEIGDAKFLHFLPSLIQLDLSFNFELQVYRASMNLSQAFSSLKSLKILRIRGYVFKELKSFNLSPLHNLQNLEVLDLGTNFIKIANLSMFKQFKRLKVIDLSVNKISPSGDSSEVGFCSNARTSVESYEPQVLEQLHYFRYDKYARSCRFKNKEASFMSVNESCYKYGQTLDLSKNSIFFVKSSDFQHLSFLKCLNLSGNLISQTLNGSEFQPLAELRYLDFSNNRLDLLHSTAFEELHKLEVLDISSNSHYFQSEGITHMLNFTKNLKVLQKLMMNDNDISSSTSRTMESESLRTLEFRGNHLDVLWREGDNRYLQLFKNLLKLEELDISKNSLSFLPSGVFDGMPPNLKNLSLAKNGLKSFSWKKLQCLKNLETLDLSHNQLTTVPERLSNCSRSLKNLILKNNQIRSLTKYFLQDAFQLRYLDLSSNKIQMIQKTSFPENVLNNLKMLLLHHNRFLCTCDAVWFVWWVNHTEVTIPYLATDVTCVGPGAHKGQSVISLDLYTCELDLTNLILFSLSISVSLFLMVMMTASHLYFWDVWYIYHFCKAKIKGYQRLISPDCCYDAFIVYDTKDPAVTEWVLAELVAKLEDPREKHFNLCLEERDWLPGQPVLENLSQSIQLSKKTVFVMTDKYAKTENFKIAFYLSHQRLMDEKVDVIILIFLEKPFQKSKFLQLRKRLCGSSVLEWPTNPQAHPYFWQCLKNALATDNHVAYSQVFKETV
# B1: 10F: 5′ppp 2′F pyrimidine ssRNA aptamer, 71 nt, human melanocytic cell-targeting, SEQ ID NO: 4 (nucleic acid)
# chain: {ppp}-rGrGrGrArGrGrAfCrGrAfUrGfCrGrGfUrAfCfCfUrGrAfCrArGfCrAfUfCfUfUrGrAfUrArAfUrGrGfUfCfCfUrAfCrGrGrArGfCfCrGfUfUfCfCrArGrAfCrGrAfCfUfCrGfCfCfCrGrA
# Columns and labels:
# WM266-4 cells [1] = assay: Apoptosis / cell death by Annexin V-PE and 7-AAD flow cytometry; format: cell-based, human; conditions: aptamer treated with bacterial alkaline phosphatase (BAP), 0.125 μg/ml
# Method: For the intracellular delivery of immune stimulatory RNAs, RNAs were transfected with the DharmaFECT® Duo liposomal transfection reagent (Thermo Scientific, Waltham, Mass.) at a transfection reagent (μl):RNA (μg) ratio of 3.75:1, according to the manufacturer's instructions. Unless otherwise stated, for the induction of innate immune responses and apoptosis, immune stimulatory RNAs (500 ng/ml) were transfected into 50 to 70% confluent cells. Cells were incubated with an RNA-transfection agent complex for 5 h, followed by replenishment with fresh culture medium. […]
# (§1) Growth inhibition relative to untreated cells was quantified at 72 h after RNA transfection using an MTT Cell Proliferation Assay Kit (Cayman Chemicals, Ann Arbor, Mich.), according to the manufacturer's instructions. The percent growth inhibition was calculated by using the following equation: % growth inhibition=([O.D.]untreated−[O.D.]treated)/[O.D.]untreated×100. The induction of cell death was measured 48 h after RNA transfection by flow cytometry after staining with Annexin V-PE and 7-Aminoactinomycin D (7-AAD) using the PE Annexin V Apoptosis Detection Kit I (BD Biosciences, San Jose, Calif.) and analyzed using the CellQuest software (BD Biosciences).
# WM266-4 cells [2] = format: cell-based
# Method: For the intracellular delivery of immune stimulatory RNAs, RNAs were transfected with the DharmaFECT® Duo liposomal transfection reagent (Thermo Scientific, Waltham, Mass.) at a transfection reagent (μl):RNA (μg) ratio of 3.75:1, according to the manufacturer's instructions. Unless otherwise stated, for the induction of innate immune responses and apoptosis, immune stimulatory RNAs (500 ng/ml) were transfected into 50 to 70% confluent cells. Cells were incubated with an RNA-transfection agent complex for 5 h, followed by replenishment with fresh culture medium. To electroporate cells, 1×10^5 cells suspended in 200 μl Opti-MEM I (Invitrogen) were mixed with 1 μg of immune stimulatory RNAs or 5 μg of 2′Fluoro pyrimidine ribonucleoside triphosphate in 2-mm cuvettes and were electroporated at 300 V for 500 μs using an Electro Square Porator ECM 830 (BTX, San Diego, Calif.). For the knockdown of RNA-sensing PRRs, cells were transfected with PRR-specific siRNAs (25 nM) twice at 2-day intervals using DharmaFECT®-1 (Thermo Scientific). At 5 h after the second siRNA transfection, cells were harvested, replated into a 96-well plate and incubated overnight. Cells were then treated with immune stimulatory RNA transfections. Staurosporine (2 μM) (Sigma, St Louis, Mo.) and recombinant human IFNβ (20 ng/ml) (PeproTech, Rocky Hill, N.J.) were used as positive controls of anti-melanoma cytotoxicity. B18R (100 ng/ml) (eBioscience, San Diego, Calif.) was added directly to the growth media of cells to neutralize IFNβ.
# as §1
# Human TLR7 = target: T1, Human TLR7; assay: IL-8 production by human TLR7-expressing HEK293 cells; format: cell-based
# Method: The human TLR3 reporter cell, HEK-hTLR3-NFκB/SEAP was purchased from Invivogen. These cells were stably co-transfected with the human TLR3 gene and an inducible SEAP (secreted embryonic alkaline phosphatase) reporter gene into HEK293 cells. The SEAP gene is placed under the control of NF-κB and AP-1. […] SEAP gene expression was measured using the SEAP detection media QUANTI-BLUE (Invivogen), according to the manufacturer's instructions. FIG. 3B is a graph showing that TLR7 is not stimulated by the ssRNAs. Human TLR7-expressing HEK293 cells were kindly provided by Dr. Todd Brennan (Duke University, Durham, N.C.). Treatment with R848 but not with polyI:C, polyI:C-DF and 5′ppp 2′F 10F-DF complexes stimulated HEK-TLR7 cells to produce the inflammatory cytokine IL-8. The data represent the mean of two experiments. Error bars represent the S.D.
molecule,measurement,setting,value
B1,apoptosis after dephosphorylation of the aptamer,WM266-4 cells [1],partially prevented
same,"cytotoxicity, fold compared to unmodified 5′ppp RNAs","WM266-4 cells [2]; 5′ppp 10F variants, 72 h, MTT",over 2 fold
same,cell death / apoptosis of melanoma cells on co-treatment with B18R,"WM266-4 cells [2]; B18R 100 ng/ml, type I IFN decoy receptor",only partially rescued
same,"growth inhibition / cytotoxicity (anti-melanoma effect), in words","WM266-4 cells [2]; liposomal transfection, 72 h, MTT","comparable to levels observed for the gold standard PRR-activating anti-cancer agent, polyI:C"
same,stimulation of HEK-TLR7 cells to produce IL-8,Human TLR7,not
